By stoichiometry N is commonly meant a count of units in the complex or per binding partner.

Test [1] has as its target YabJ from Staphylococcus aureus Mu50 (SAV0497), native recombinant (Staphylococcus aureus Mu50). In words: crystal structure; 1.75 Å, space group P2(1), six molecules per asymmetric unit; crystals from 25% PEG3350, 100 mM Tris/HCl pH 8.5, 293 K; interfaces calculated with PISA.
For test [2] the target is unchanged. The test is described as follows: SEC; size-exclusion chromatography of native and chemically treated SAYabJ; excess HOCl, DTT and H2O2 removed by dialysis beforehand; Superdex 75 (10/300 GL), 50 mM Tris/HCl pH 7.5, 200 mM NaCl named for the purification.
The target is the same in test [3]. The test is described as follows: SDS/PAGE; 12% polyacrylamide gel, samples treated with 1% SDS and 5% 2-mercaptoethanol at 100°C for 5 min; trimer band at 50 kDa, monomer band at 16 kDa.
Test [4] has as its target chlorinated and reduced SAYabJ (HOCl-treated, then DTT-reduced YabJ from S. aureus Mu50) (Staphylococcus aureus Mu50). The test is described as above.

On to “YabJ from Staphylococcus aureus Mu50 (SAV0497), native recombinant (natural protein)”, for which the stoichiometry N in test [1], in test [2] and in test [3] was 3 in each case.
In test [4], “chlorinated and reduced SAYabJ (HOCl-treated, then DTT-reduced YabJ from S. aureus Mu50) (natural protein)” showed a stoichiometry N of 3.

Values taken from paper PMC6435465.
